Data: paper PMC8934638, “H3K36 methylation and DNA-binding both promote Ioc4 recruitment and Isw1b remodeler function”

Legend:
[1] = target: T1, Ioc4 full-length (Saccharomyces cerevisiae, UniProt Q04213 1-475); experiment: EMSA; details: 5% native PAGE (37.5:1) in 0.4x TBE, 2% glycerol, binding buffer, pH and temperature not given (as in …)
T1 sequence: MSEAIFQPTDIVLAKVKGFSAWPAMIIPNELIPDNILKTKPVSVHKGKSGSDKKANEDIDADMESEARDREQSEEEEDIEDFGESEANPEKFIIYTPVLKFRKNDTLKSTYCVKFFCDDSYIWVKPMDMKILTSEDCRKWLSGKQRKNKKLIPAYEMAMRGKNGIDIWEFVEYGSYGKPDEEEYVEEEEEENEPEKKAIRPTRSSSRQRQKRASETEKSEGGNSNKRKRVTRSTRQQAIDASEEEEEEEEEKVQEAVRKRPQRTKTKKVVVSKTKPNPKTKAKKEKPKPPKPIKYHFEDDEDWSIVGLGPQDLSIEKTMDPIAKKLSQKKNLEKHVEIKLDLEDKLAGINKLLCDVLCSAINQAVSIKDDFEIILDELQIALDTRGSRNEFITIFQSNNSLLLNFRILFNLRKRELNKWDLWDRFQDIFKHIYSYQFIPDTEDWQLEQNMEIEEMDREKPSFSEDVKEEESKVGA

[2] = target: T2, Ioc4 PWWP domain (Saccharomyces cerevisiae, UniProt Q04213 1-178); experiment: EMSA; details: 5% native PAGE (37.5:1) in 0.4x TBE, 2% glycerol, binding buffer, pH and temperature not given (as in …)
T2 sequence: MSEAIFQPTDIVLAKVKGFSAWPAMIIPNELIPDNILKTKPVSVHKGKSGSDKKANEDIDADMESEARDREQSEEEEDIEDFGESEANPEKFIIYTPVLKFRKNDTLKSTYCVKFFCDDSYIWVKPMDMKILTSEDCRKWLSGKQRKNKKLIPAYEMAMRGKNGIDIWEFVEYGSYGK

[3] = tested on: Isw1b complex (Isw1, Ioc2, Ioc4) (Saccharomyces cerevisiae); experiment: EMSA; details: peptide-ligated H3 (T45C), 5% native PAGE (37.5:1) in 0.4x TBE, 2% glycerol, binding buffer, pH and temperature not given (as in …)
[4] = target: T1, Ioc4 full-length; experiment: EMSA; EMSA; 15 fmol NCP (30 fmol unmodified NCP) per reaction; 5% native PAGE (37.5:1) in 0.4x TBE, 2% glycerol; binding buffer, pH and temperature not given (as in cited work); details: protein: recombinant; tags: N-terminal 6xHis-MBP; label: Cy5 on sense strand; blunt
[5] = target: T2, Ioc4 PWWP domain; experiment: as above; details: protein: recombinant; tags: N-terminal 6xHis; label: Cy5 on sense strand; blunt
[6] = target: T2, Ioc4 PWWP domain; experiment: EMSA; bound equally to the AT-rich substrate; EMSA; 15 fmol NCP (30 fmol unmodified NCP) per reaction; 5% native PAGE (37.5:1) in 0.4x TBE, 2% glycerol; binding buffer, pH and temperature not given (as in cited work); details: protein: recombinant; tags: N-terminal 6xHis; label: Cy5 on sense strand; blunt
[7] = 15 fmol NCP (30 fmol unmodified NCP) per reaction
[8] = peptide-ligated H3 (T45C), K36me0, 15 fmol NCP (30 fmol unmodified NCP) per reaction
[9] = peptide-ligated H3 (T45C), K36me3, 15 fmol NCP (30 fmol unmodified NCP) per reaction

## RNA:DNA hybrid
[1]; [7]
  Kd: 55 nM
[2]; [7]
  Kd: 760 nM

## NCP unmodified, 147 bp 601
[2]; unmodified histones, 15 fmol NCP (30 fmol unmodified NCP) per reaction
  Kd: 450 nM

## NCP H3K36me0, 147 bp 601
[1]; [8]
  Kd: 11 nM
[2]; [8]
  Kd: 400 nM
[3]; K36me0, 15 fmol NCP (30 fmol unmodified NCP) per reaction
  Kd: 57.3 nM

## NCP H3K36me3, 147 bp 601
[1]; [9]
  Kd: 6.7 nM
[2]; [9]
  Kd: 120 nM
[3]; K36me3, 15 fmol NCP (30 fmol unmodified NCP) per reaction
  Kd: 4.8 nM

B1: dsDNA 30 bp (601-derived EMSA probe) (dsDNA)
DNA 1: GGCAAGGTCGCTGTTCAATACATGCACAGG
DNA 2: CCTGTGCATGTATTGAACAGCGACCTTGCC
[4]
  Kd: 34 nM
[5]
  Kd: 810 nM

B2: dsRNA 25 bp GC rich (dsRNA)
RNA 1: CCCGGUGCCGAGGCCGCUCAAUUGG
RNA 2: CCAAUUGAGCGGCCUCGGCACCGGG
[6]
  binding result: binds

B3: dsRNA 30 bp (AT rich) (dsRNA)
RNA 1: GGCAAGGUCGCUGUUCAAUACAUGCACAGG
RNA 2: CCUGUGCAUGUAUUGAACAGCGACCUUGCC
[4]
  Kd: 56 nM
[5]
  Kd: 1800 nM
